Laboratory results from US20060063709A1.

Biological target: NF-kB from mouse cells (nuclear extracts of TPA-stimulated 70Z/3 pre-B cells; also nuclear extracts of the mouse B cell line WEHI 231; cytosolic precursor of 70Z/3) (mouse)

IkB (protein inhibitor of NF-kB) prepared from cytosol of unstimulated mouse 70Z/3 pre-B cells
DNA binding activity of NF-kB in EMSA (inhibitor assay): > 90%
reactivation of IkB-inactivated NF-kB DNA binding activity by DOC (EMSA): 66%
